B1: KRT33B (parent)
chain: PAVDLNQVLNETRNQYEALVETNR

Variants of: B1
Experiment: protein stability index of a GFP-peptide fusion (GPS, HEK-293T) (PSI 1-6); higher = more stable
Details: c terminus: a fixed tail appended
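Also: lentivirally expressed fusions sorted by FACS into six bins by GFP to DsRed ratio, PSI derived from sequencing read proportions per bin multiplied by bin number.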

Protein stability index, by site and new letter:
V20: N 4.45, T 4.95, S 4.43, E 3.52, L 3.88, Q 4.94, C 4.06, I 4.39, W 3.62, H 4.92, D 5.39, M 2.8, K 4.24, Y 4.22, F 4.09
N23: T 4.46, P 4.54, G 4.07, I 3.24, F 2.58, H 4.35, E 4.51, W 3.36, Q 4.43, V 3.27, D 5.06, K 4.54, M 3.29, L 3.06, R 4.31
E17: N 3.61, W 3.54, P 4.39, Y 3.09, S 4.24, Q 4.4, D 4.23, G 3.91, F 2.9, M 3.55, C 3.65
N14: R 2.81, G 3.32, M 2.05, S 3.04, L 2.07, I 2.02, Q 2.57, P 4.43, H 3.53, F 3.54, D 3.59, V 3.3, C 2.82, A 2.25, E 2.68
L19: P 4.97, T 4.7, Q 5.1, A 5.03, G 4.91, E 5.19, N 4.87, H 4.57, D 5.42, Y 4.61, V 4.85, M 3.89, R 4.29, I 4.11
R24: P 4.94, W 3.46, K 3.97, A 4, Q 4.16, C 2.43, S 4.15, V 1.45, I 2.59, E 4.13, F 3
V8: Y 2.49, D 4.77, P 5.14, G 4.91, K 4.56, E 4.7, N 4.83, R 4.93, I 2.98, M 2.66, W 3.42, Q 4.64, S 4.43, C 3.71, F 3.78
P1: L 3.46, E 2.98, S 4.42, D 4.32, G 4.39, R 3.7, I 2.69, C 2.89, V 3.15, K 3.66, A 3.25, W 3.26, Y 3.33, Q 3.26, F 2.78, T 3.72
Q7: Y 3.83, W 4.22, T 2.97, C 3.57, G 4.59, A 3.27, P 4.78, S 4.01, L 4.06, D 3.73, K 3.91, N 4.33
L5: Q 4.78, W 2.52, S 4.78, H 3.83, D 4.64, M 4, K 4.79, E 4.53, I 3.47, V 3.02, C 3.97, Y 3.44, A 3.8, R 4.4, T 4.48
N10: M 2.23, V 3.22, L 2.56, K 2.74, G 4.34, A 2.98, S 3.31, Y 2.47, C 3.59, P 4.84, H 3.74, Q 2.58, R 2.76, E 2.09, T 2.67, I 2.64
E11: K 3.85, I 3.97, W 3.38, G 3.85, P 4.27, V 3.88, M 3.31, R 4.02, L 3.81, Y 3.85, Q 4.29, C 4.3
V3: E 4.05, P 4.99, Y 3.56, T 3.87, S 3.64, D 4.77, Q 3.29, C 2.81, M 2.7, N 4.25, A 3.85, F 4.36, H 4.33
D4: P 3.74, Y 3.44, N 4.46, H 4.22, I 3.41, K 4, M 4.15, T 3.08, C 3.88, W 2.64, R 3.76, Q 4.31, G 4.02, E 3.86
L9: V 4.65, K 5.09, Y 4.53, W 4.32, Q 4.24, T 4.61, P 4.72, R 4.36, N 5.13, I 3.55
Q15: K 4.06, M 1.6, S 3.95, G 4.45, L 2.04, D 4.33, H 3.95, C 3.87, P 4.39, W 2.86, F 2.72, T 4.22, E 4.61, A 3.84, Y 3.23, I 3.44
E21: Y 3.23, L 3.37, W 2.89, A 3.85, Q 3.95, M 3.67, S 4.05, G 4.22, R 4.04, N 4.14
R13: M 3.12, S 4.8, K 3.03, D 4.93, F 4.15, T 4.59, Y 3.69, Q 4.32, V 4.15, E 4.86, H 4.76, W 3.92, P 5.18, G 4.35, C 4.38, N 5.01, I 3.32, A 4.35, L 3.46
T12: E 4.5, I 2.41, W 3.09, C 3.24, K 4.41, Y 2.77, A 2.16, D 4.61, N 4.11, Q 2.85, M 3.4, G 4.32, S 3.8
Y16: V 4.92, I 4.17, N 5.25, G 5.21, C 4.57, P 5.06, R 5.09, L 4.37, Q 5.29, W 3.89, H 5.02, M 4.39
A18: D 4.43, L 3.59, I 3.55, M 3.55, W 3.72, T 3.67, E 3.58, N 3.89, C 3.83, F 3.48, P 4.28, Y 3.96, K 2.69, S 3.71, H 4.09
N6: A 2.77, L 1.71, H 2.97, Y 2.64, T 3.43, P 4.33, F 2.31, C 2.56, D 2.8, V 2.43, W 1.82, E 1.97, K 3.27, Q 2.83, S 3.54
A2: I 2.84, C 2.87, W 1.59, L 3.25, T 3.52, G 3.95, P 3.14, F 2.39, E 2.26, R 3.57, H 3.93, Y 2.02, M 2.4, V 3.11
T22: I 3.02, P 4.65, K 3.7, V 1.57, Q 3.94, R 4.02, L 2.23, H 3.98, Y 4.57, N 4.5, S 4.43, D 4.8, W 3.88, G 4.73, A 3.94, F 3.61

Source: the supplement of paper PMC10567573
